T1: Lrp6E3E4 domain (Homo sapiens, UniProt O75581)
T1 sequence (O75581 631-1244 limits assumed): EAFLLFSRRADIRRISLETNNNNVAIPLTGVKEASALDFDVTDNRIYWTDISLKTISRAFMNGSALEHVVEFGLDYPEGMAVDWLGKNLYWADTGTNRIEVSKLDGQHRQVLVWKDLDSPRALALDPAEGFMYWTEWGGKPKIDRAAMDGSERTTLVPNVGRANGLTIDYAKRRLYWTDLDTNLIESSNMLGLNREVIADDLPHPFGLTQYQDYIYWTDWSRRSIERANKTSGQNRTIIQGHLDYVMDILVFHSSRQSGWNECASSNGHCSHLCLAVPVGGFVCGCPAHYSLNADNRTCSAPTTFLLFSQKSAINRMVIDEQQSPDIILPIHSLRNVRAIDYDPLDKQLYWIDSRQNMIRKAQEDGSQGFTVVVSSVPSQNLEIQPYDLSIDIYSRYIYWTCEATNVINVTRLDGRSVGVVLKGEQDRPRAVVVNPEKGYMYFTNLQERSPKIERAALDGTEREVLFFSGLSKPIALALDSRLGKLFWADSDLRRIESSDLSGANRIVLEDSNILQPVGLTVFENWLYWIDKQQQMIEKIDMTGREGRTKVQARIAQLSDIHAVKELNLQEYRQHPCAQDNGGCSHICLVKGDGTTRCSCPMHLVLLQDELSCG


Columns and labels:
[1] = target: T1, Lrp6E3E4 domain; test: Bio-layer interferometry (Octet) binding kinetics of VHH26 constructs; settings: 1:1 binding model
Procedure: These six humanized VHH26 variants H1 to H6 and the parental VHH26 were transiently expressed in Expi293 cells (at 80 mL scale) with a C-terminal hexa-histidine tag. Proteins were purified using His-Complete resin (Roche, USA) following standard procedures. Expression levels and homogeneity of VHH26 and its humanized variants were analyzed by SDS-PAGE and SEC (size-exclusion chromatography). […] Biotinylated LRP6E3E4 diluted to 50 nM in the running buffer (PBS, 0.05% Tween-20, 0.5% BSA, pH 7.2) were captured to the SA biosensor followed by dipping into wells containing the indicated VHH26 proteins at different concentrations in running buffer or into a well with only running buffer as a reference channel. KD for each binder was calculated by Octet System software, based on fitting to a 1:1 binding model. Kinetics values (Kon, Koff, KD) from each experiment was calculated from seven technical replicates of different concentrations of the molecule tested with Octet Data Analysis 9.0 (PALL ForteBio, Fremont, CA).
Central fractions of each of these peaks were examined by Octect-BLI for their ability interact with Lrp6. Kinetics parameters such as kon, koff, and KD for interaction between VHH26 constructs and Lrp6E3E4 domain are listed in Table 2. Analyses of these parameters reveal that the binding affinity towards Lrp6 is least affected in the case of the VHH26-H5 humanized variant compared to the parent VHH26 (Table 2; FIG. 3B).

[2] = tested on: colon tissue markers (ZO-1, Ki67, Axin2, Cdkn3, S100A9, CD45); test: RNA in situ hybridization and immunohistochemistry/immunofluorescence of colon tissue, DSS model; assay type: in vivo, mouse; settings: day 10 of the DSS model
Excerpt: Expression of mRNA was detected by RNAscope in situ hybridization (ACD Bio). RNAscope probes used are listed below. For colorimetric visualization, standard RNAscope® 2.5 HD Assay-Red protocol (www.acdbio.com) was followed, and images were acquired on a Leica DMi8 microscope equipped with a DFC7000T color camera. For fluorescent RNAscope in situ hybridization, standard RNAscope Multiplex Fluorescent Reagent Kit v2 Assay protocol was followed (ACD Bio Document #323100-USM) and coupled with the TSA Plus Cyanine 3 and 5 Systems. Fluorescent images were acquired with a Leica Thunder imaging system.
In brief, five-micron thick formalin fixed paraffin embedded tissue sections on slides were deparaffinized followed by citrate buffer (pH 6) antigen retrieval in a steamer. Slides were then washed thoroughly in tap water followed by 1× wash in PBST. Subsequently, tissue sections were blocked with serum free protein block (Agilent, X090930-2) for one hour at room temperature followed by incubation in primary antibodies. After primary antibody incubation, tissue sections were washed in 0.1% TX-100 in PBS (PBST) at least three times followed by incubation in secondary antibody. Afterwards, tissue sections were washed with PBST, and coverslips were mounted with Vectashield Vibrance antifade mounting medium with DAPI (Vector Laboratories, H-1800).

[3] = tested on: DSS induced acute colitis in C57BL6/J mice; test: DSS induced acute colitis model; assay type: in vivo, mouse; settings: IP twice weekly or daily starting on day 4 of DSS
Procedure: 7- to 8-week-old female C57BL6/J mice were fed with 4% (wt/vol) Dextran Sulfate Sodium (DSS, MP Biomedicals, molecular weight 36-50 kDa, Ref #160110) in drinking water from day 1 to day 7 to induce colitis and were switched to 1% DSS from day 8. […] Animals were terminated on day 10, allowing a 6-day course of protein treatment, and the colon was harvested for histology and RT-qPCR. […] The disease activity index (DAI) was calculated based on the average score of weight loss, stool consistency and the degree of intestinal bleeding (Wirtz Stefan et al., 2017). Scoring system by grading was on a scale of 0 to 4 using the following parameters: loss of weight (0, 0-1%; 1, 1-6%; 2, 6-12%; 3, 12-18%; 4, >18%), stool consistency (0, normal; 1, soft but still formed; 2, soft; 3, very soft, wet; 4, watery diarrhea) and intestine bleeding (0-1, negative hemoccult; 2, positive hemoccult; 3, blood traces in stool visible; 4, gross rectal bleeding).
Small intestine and colon were extracted and, after removing fecal content, weighted and length measured. The desired small intestine segments (duodenum, jejunum, ileum) and colon segments (ascending, transverse and descending colon) were cut out and fixed directly in 10% neutral buffered formalin (NBF) overnight. Tissues were then transferred to 70% ethanol before paraffin embedding. Paraffin tissue blocks were then sectioned to […] thickness and stained with hematoxylin and eosin (H&E) for histology analysis. Pathology reading was performed by an independent pathologist.
[…] Groups of mice were either untreated, treated with an isotype control antibody (anti-GFP), or treated with the indicated engineered Wnt agonist once on day 4 or twice on day 4 and 7. […]
The 123 mice total were grouped: (Day3=13, day4=13, day5=26, day6=24, day7=26, day10=21), with 91 used for histology endpoints, and 21 for scRNA-seq (group eliminated because of machinery). Daily food intake, BW, fecal score, and occult blood were measured. […]

[4] = SEC fraction C1/G1 (parental D3)
[5] = SEC fraction C3/G3 (parental D3)

Molecule	koff [1, 4]	kon [1, 4]	koff [1, 5]	kon [1, 5]	Ki67 expression in duodenum and colon [2]	repair of damaged colon epithelium / colon histology [3]
VHH26 (parental): parental camelid LRP6 binding VHH, SEQ ID NO: 25 (protein, VHH26 (parental)) VHH: DVQLVESGGGLVQAGGSLRLACAGSGRIFAIYDIAWYRHPPGNQRELVAMIRPVVTEIDYADSVKGRFTISRNNAMKTVYLQMNNLKPEDTAVYYCNAKRPWGSRDEYWGQGTQVTVSS	1.77E−02	8.10E+05	1.82E−02	1.05E+06	–	–
VHH26-H4: humanized variant of LRP6 binding VHH26, SEQ ID NO: 22 [VHH26-H4] (protein, VHH26_H4) VHH: EVQLVESGGGLVQPGGSLRLSCAGSGRIFAIYDIAWYRQAPGKGRELVAMIRPVVTEIDYADSVKGRFTISRDNSKNTVYLQMNSLRAEDTAVYYCNAKRPWGSRDEYWGQGTTVTVSS	9.51E−02	1.44E+05	5.56E−03	2.90E+04	–	–
VHH26-H2: humanized variant of LRP6 binding VHH26, SEQ ID NO: 20 (protein, VHH26_H2) VHH: EVQLVESGGGLVQPGGSLRLSCAGSGRIFAIYDIAWYRQAPGKGLEWVAMIRPVVTEIDYADSVKGRFTISRDNSKNTVYLQMNSLRAEDTAVYYCNAKRPWGSRDEYWGQGTTVTVSS	6.53E−02	1.48E+05	6.84E−02	2.44E+05	–	–
VHH26-H6: humanized variant of LRP6 binding VHH26, SEQ ID NO: 24 [VHH26-H6] (protein, VHH26_H6) VHH: EVQLVESGGGLVQPGGSLRLSCAGSGRIFAIYDIAWYRQAPGKGRELVAMIRPVVTEIDYADSVKGRFTISRDNSKKTVYLQMNSLRAEDTAVYYCNAKRPWGSRDEYWGQGTTVTVSS	3.11E−02	4.52E+04	8.36E−03	1.72E+04	–	–
VHH26-H5: humanized variant of LRP6 binding VHH26, SEQ ID NO: 23 (protein, VHH26_H5) VHH: EVQLVESGGGLVQPGGSLRLSCAGSGRIFAIYDIAWYRQAPGKGREWVAMIRPVVTEIDYADSVKGRFTISRDNSKKTVYLQMNSLRAEDTAVYYCNAKRPWGSRDEYWGQGTTVTVSS	1.77E−02	4.28E+05	1.47E−02	1.35E+05	–	–
RSPO2: R-spondin 2, ligand that amplifies WNT signals (protein, UniProt Q6UXX9 22-243, looked up) R-spondin-2: QGNRWRRSKRASYVSNPICKGCLSCSKDNGCSRCQQKLFFFLRREGMRQYGECLHSCPSGYYGHRAPDMNRCARCRIENCDSCFSKDFCTKCKVGFYLHRGRCFDECPDGFAPLEETMECVEGCEVGHWSEWGTCSRNNRTCGFKWGLETRTRQIVKKPVKDTILCPTIAESRRCKMTMRHCPGGKRTPKAKEKRNKKKKRKLIERAQEQHSVFLATDRANQ	–	–	–	–	expansion of Ki67 expression	less significant as compared to the effect of R2M3-26

Further lines, with some results ahead:

koff [1, 4]	kon [1, 4]	koff [1, 5]	kon [1, 5]	Molecule	Ki67 expression in duodenum and colon [2]	repair of damaged colon epithelium / colon histology [3]
5.22E−02	1.63E+04	7.75E−03	1.84E+04	VHH26-H3: humanized variant of LRP6 binding VHH26, SEQ ID NO: 21 (protein, VHH26_H3) VHH: EVQLVESGGGLVQPGGSLRLSCAGSGRIFAIYDIAWYRQAPGKGREWVAMIRPVVTEIDYADSVKGRFTISRDNSKNTVYLQMNSLRAEDTAVYYCNAKRPWGSRDEYWGQGTTVTVSS	–	–
–	–	3.98E−03	1.42E+04	VHH26-H1: humanized variant of LRP6 binding VHH26, SEQ ID NO: 19 (protein, VHH26_H1) VHH: EVQLLESGGGLVQPGGSLRLSCAASGRIFAIYDIAWVRQAPGKGLEWVSMIRPVVTEIDYADSVKGRFTISRDNSKNTLYLQMNSLRAEDTAVYYCAKKRPWGSRDEYWGQGTTVTVSS	–	–

Source: patent US20240150473A1, “MODULATION OF WNT SIGNALING IN GASTROINTESTINAL DISORDERS” (Surrozen Operating, Inc., priority 2021, published 2024)
